Broadly, the IC50 is the midpoint of a concentration-inhibition curve. A lower IC50 goes with higher potency.

This test deals with T1, epitope peptide Cys-CE3C long (also: biotin label, site not given here).
T1 peptide: CSVNVDKQPKYEYSL
As to the kind of experiment: competitive ELISA, unlabeled vs biotin-labeled peptide, antibody on anti-human IgG plate. Here is the method: A diluted solution of the obtained recombinant humanized antibody, a biotin-labeled immunogen peptide, and Streptavidin-HRP (manufactured by PIERCE) were added to an anti-human IgG antibody-immobilized plate, and reacted overnight at 4° C. […] Next, a recombinant human antibody at the dilution rate, a biotin-labeled immunogen peptide, and Streptavidin-HRP (manufactured by PIERCE) were added. At the same time, a dilution series of unlabeled immunogenic peptide was added and reacted overnight at 4° C. After washing twice with ELISA wash buffer, TMB-Substrate Chromogen (manufactured by Thermo Fisher Scientific) was added to develop color, the reaction was stopped with an equal amount of 0.5N sulfuric acid, and the absorbance at 450 nm was measured. The concentration of the unlabeled peptide which attenuated the signal of the biotin-labeled peptide by half was defined as the affinity (IC50).

Where no end group is shown, it is not given here.

B1: h15H11-20 (antibody, human IgG4 S228P, kappa, V domains shown)
VH: QVQLVQSGSELKKPGASVKVSCKASGYTFTDYNMHWVRQAPGRSLEWMGRINPKNGVINSNEKFKDRFVFSLDTSVSTAYLQISSLKAEDTAVYYCAPSYYGGNDDAYWGQGTLVTVSS
VL: DIVLTQSPASLAVSPGQRATITCRASESVDNYGISFMNWFQQKPGQPPKLLIYAASSQGSGVPARFSGSGSGTDFTLTINPMEANDTANYYCQQSKEFPWTFGGGTKVEIKR
notes: hIgG4Pro/hIgK
In turn, B1 came in with an IC50 of 0.77 nM.

B2: h15H11-26 (antibody, human IgG4 S228P, kappa, V domains shown)
VH: QVQLVQSGSELKKPGASVKVSCKASGYTFTDYNMHWVRQAPGRSLEWMGRINPKNGVINSNEKFKDRFVFSLDTSVSTAYLQISSLKAEDTAVYYCAPSYYGGDTDAYWGQGTLVTVSS
VL: DIVLTQSPASLAVSPGQRATITCRVSDSVDNYGISFLNWFQQKPGQPPKLLIYAASSQGSGVPARFSGSGSGTDFTLTINPMEANDTANYYCQQSKEFPWTFGGGTKVEIKR
notes: hIgG4Pro/hIgK
B2: the IC50 came to 0.88 nM.

B3: h15H11-21 (antibody, human IgG4 S228P, kappa, V domains shown)
VH: QVQLVQSGSELKKPGASVKVSCKASGYTFTEYNMHWVRQAPGRSLEWMGRINPKNGVILSNEKFKDRFVFSLDTSVSTAYLQISSLKAEDTAVYYCAPSYYGGNTDAYWGQGTLVTVSS
VL: DIVLTQSPASLAVSPGQRATITCRASDSVDNYGISFLNWFQQKPGQPPKLLIYAASSQGSGVPARFSGSGSGTDFTLTINPMEANDTANYYCQQSKEFPWTFGGGTKVEIKR
notes: hIgG4Pro/hIgK
With B3, the IC50 came out at 0.8 nM.

B4: h15H11-24 (antibody, human IgG4 S228P, kappa, V domains shown)
VH: QVQLVQSGSELKKPGASVKVSCKASGYTFTEYNMHWVRQAPGRSLEWMGRINPKNGVIQSNEKFKDRFVFSLDTSVSTAYLQISSLKAEDTAVYYCAPSYYGGNSDAYWGQGTLVTVSS
VL: DIVLTQSPASLAVSPGQRATITCRASDSVDNYGISFLNWFQQKPGQPPKLLIYAASSQGSGVPARFSGSGSGTDFTLTINPMEANDTANYYCQQSKEFPWTFGGGTKVEIKR
notes: hIgG4Pro/hIgK
Consider B4, for which the IC50 is 0.85 nM.

B5: h15H11-27 (antibody, human IgG4 S228P, kappa, V domains shown)
VH: QVQLVQSGSELKKPGASVKVSCKASGYTFTDYNMHWVRQAPGRSLEWMGRINPKNGVILSNEKFKDRFVFSLDTSVSTAYLQISSLKAEDTAVYYCAPSYYGGNTDAYWGQGTLVTVSS
VL: DIVLTQSPASLAVSPGQRATITCRVSDSVDNYGISFLNWFQQKPGQPPKLLIYAASSQGSGVPARFSGSGSGTDFTLTINPMEANDTANYYCQQSKEFPWTFGGGTKVEIKR
notes: hIgG4Pro/hIgK
The molecule B5 had an IC50 of 0.91 nM.

B6: h15H11-22 (antibody, human IgG4 S228P, kappa, V domains shown)
VH: QVQLVQSGSELKKPGASVKVSCKASGYTFTEYNMHWVRQAPGRSLEWMGRINPKNGVINSNEKFKDRFVFSLDTSVSTAYLQISSLKAEDTAVYYCAPSYYGGDTDAYWGQGTLVTVSS
VL: DIVLTQSPASLAVSPGQRATITCRASESVDNYGISFMNWFQQKPGQPPKLLIYAASSQGSGVPARFSGSGSGTDFTLTINPMEANDTANYYCQQSKEFPWTFGGGTKVEIKR
notes: hIgG4Pro/hIgK
As to B6, the IC50 worked out at 0.8 nM.

B7: h15H11-23 (antibody, human IgG4 S228P, kappa, V domains shown)
VH: QVQLVQSGSELKKPGASVKVSCKASGYTFTEYNMHWVRQAPGRSLEWMGRINPKNGVINSNEKFKDRFVFSLDTSVSTAYLQISSLKAEDTAVYYCAPSYYGGNSDAYWGQGTLVTVSS
VL: DIVLTQSPASLAVSPGQRATITCRASDSVDNYGISFLNWFQQKPGQPPKLLIYAASSQGSGVPARFSGSGSGTDFTLTINPMEANDTANYYCQQSKEFPWTFGGGTKVEIKR
notes: hIgG4Pro/hIgK
As for B7, the IC50 amounted to 0.83 nM.

B8: h15H11-25 (antibody, human IgG4 S228P, kappa, V domains shown)
VH: QVQLVQSGSELKKPGASVKVSCKASGYTFTEYNMHWVRQAPGRSLEWMGRINPKNGVILSNEKFKDRFVFSLDTSVSTAYLQISSLKAEDTAVYYCAPSYYGGNTDAYWGQGTLVTVSS
VL: DIVLTQSPASLAVSPGQRATITCRASESVDNYGISFMNWFQQKPGQPPKLLIYAASSQGSGVPARFSGSGSGTDFTLTINPMEANDTANYYCQQSKEFPWTFGGGTKVEIKR
notes: hIgG4Pro/hIgK
B8 yielded an IC50 of 0.86 nM.

Values taken from patent US20250163145A1 (SHIONOGI, published 2025).
